This is an account of results in publication PMC9482650, “Quantitative fragmentomics allow affinity mapping of interactomes” (Nature Communications, 2022).

Experiment in all cases: holdup assay
What all share (design): key: below the threshold = too weak to quantify, mostly under pKd 3.1 to 4
Common to all, as to conditions: plain residues with an end cap or a label only (N-terminal biotin on a linker: ttds)

Experiment [1] addresses T1, USH1C_3, Q9Y6N9.
T1 sequence (Q9Y6N9 447-547, limits assumed, looked up): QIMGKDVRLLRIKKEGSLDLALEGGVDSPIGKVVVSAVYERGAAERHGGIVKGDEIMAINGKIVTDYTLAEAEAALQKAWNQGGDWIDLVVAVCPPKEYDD

Experiment [2] addresses T2, PDZD2_6, O15018.
T2 sequence (O15018 2745-2839, limits assumed, looked up): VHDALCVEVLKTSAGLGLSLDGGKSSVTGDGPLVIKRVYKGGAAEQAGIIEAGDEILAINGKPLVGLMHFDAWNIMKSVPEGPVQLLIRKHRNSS

For experiment [3], the target named is T3, MPDZ_11, O75970.
T3 sequence (O75970 1720-1817, limits assumed, looked up): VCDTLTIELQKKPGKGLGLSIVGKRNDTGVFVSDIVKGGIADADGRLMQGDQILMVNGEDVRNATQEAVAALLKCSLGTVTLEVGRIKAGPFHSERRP

Experiment [4] addresses RIMS1, Q86UR5.
For experiment [5], the target named is PTPN13_2, Q12923.
For experiment [6], the target named is SDCBP_1, O00560.
Experiment [7] has as its target T4, INTU, Q9ULD6.
T4 sequence (Q9ULD6 180-273, limits assumed, looked up): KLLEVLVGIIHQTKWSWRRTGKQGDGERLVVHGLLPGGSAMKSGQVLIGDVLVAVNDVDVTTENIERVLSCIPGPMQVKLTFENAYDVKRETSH

The target in experiment [8] is MAGI1_5, Q96QZ7.
Experiment [9] deals with MAGI3_6, Q5TCQ9.
The target in experiment [10] is T5, PTPN13_4, Q12923.
T5 sequence (Q12923 1783-1878, limits assumed, looked up): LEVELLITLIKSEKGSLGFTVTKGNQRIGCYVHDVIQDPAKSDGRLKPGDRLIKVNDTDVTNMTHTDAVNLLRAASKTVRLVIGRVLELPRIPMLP

Experiment [11] deals with T6, PDZD7_2, Q9H5P4.
T6 sequence (Q9H5P4 205-303, limits assumed, looked up): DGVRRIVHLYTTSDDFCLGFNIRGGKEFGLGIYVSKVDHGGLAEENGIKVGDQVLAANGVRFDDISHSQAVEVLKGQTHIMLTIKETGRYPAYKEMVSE

Experiment [12] addresses MAGI3_5, Q5TCQ9.
Experiment [13] deals with DLG5_2, Q8TDM6.
Experiment [14] concerns the target T7, PDZD2_1, O15018.
T7 sequence (O15018 80-192, limits assumed, looked up): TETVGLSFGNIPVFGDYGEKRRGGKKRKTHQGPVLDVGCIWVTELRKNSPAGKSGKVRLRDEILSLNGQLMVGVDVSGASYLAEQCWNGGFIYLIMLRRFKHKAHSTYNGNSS

Experiment [15] concerns the target T8, MPDZ_13, O75970.
T8 sequence (O75970 1982-2070, limits assumed, looked up): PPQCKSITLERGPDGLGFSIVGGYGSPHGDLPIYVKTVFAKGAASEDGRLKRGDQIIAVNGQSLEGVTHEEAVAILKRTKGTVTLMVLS

The target of experiment [16] is CNKSR3, Q6P9H4.
For experiment [17], the target named is T9, MPDZ_6, O75970.
T9 sequence (O75970 1003-1099, limits assumed, looked up): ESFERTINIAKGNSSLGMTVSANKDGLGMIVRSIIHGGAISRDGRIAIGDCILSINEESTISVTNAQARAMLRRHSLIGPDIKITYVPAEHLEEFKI

Experiment [18] has as its target T10, USH1C_2, Q9Y6N9.
T10 sequence (Q9Y6N9 206-303, limits assumed, looked up): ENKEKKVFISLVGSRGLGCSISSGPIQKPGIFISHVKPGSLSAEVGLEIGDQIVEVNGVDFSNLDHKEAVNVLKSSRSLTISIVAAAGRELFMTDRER

Experiment [19] deals with T11, SIPA1L3, O60292.
T11 sequence (O60292 961-1052, limits assumed, looked up): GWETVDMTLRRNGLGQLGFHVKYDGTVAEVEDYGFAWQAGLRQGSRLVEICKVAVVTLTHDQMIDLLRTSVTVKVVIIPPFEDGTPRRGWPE

Experiment [20] has as its target Inadl_7, Q8NI35.
Experiment [21] concerns the target MAGI1_6, Q96QZ7.
Experiment [22] addresses T12, DVL1, O14640.
T12 sequence (O14640 246-333, limits assumed, looked up): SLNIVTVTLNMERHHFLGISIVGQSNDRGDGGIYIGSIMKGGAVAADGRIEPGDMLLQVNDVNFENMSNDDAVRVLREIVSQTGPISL

Experiment [23] deals with T13, NHERF3_2, Q5T2W1.
T13 sequence (Q5T2W1 129-225, limits assumed, looked up): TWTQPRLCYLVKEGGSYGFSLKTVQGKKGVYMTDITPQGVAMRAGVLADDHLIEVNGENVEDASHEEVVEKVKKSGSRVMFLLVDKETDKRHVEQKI

Experiment [24] deals with T14, TJP3_1, O95049.
T14 sequence (O95049 6-103, limits assumed, looked up): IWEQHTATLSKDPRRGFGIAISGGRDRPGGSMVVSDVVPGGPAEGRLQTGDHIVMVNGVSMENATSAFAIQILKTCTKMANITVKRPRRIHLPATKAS

For orientation: pKd means −log10 of the Kd, conventionally taken in molar units.

SDCBP_1, O00560, sequence (O00560 111-198): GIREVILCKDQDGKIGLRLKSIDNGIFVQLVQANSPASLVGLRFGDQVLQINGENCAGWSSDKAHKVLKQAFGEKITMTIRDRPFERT
MAGI1_6, Q96QZ7, sequence (Q96QZ7 1146-1238): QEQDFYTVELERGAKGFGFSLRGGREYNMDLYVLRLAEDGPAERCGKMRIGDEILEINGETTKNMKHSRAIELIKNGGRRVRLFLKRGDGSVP
MAGI3_5, Q5TCQ9, sequence (Q5TCQ9 847-941): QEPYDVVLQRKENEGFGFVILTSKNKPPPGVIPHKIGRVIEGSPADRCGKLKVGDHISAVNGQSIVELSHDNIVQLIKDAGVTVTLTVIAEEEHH
MAGI3_6, Q5TCQ9, sequence (Q5TCQ9 1014-1103): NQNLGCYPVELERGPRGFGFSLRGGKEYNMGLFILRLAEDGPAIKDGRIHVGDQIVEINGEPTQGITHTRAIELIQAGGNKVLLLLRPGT
PTPN13_2, Q12923, sequence (Q12923 1363-1462): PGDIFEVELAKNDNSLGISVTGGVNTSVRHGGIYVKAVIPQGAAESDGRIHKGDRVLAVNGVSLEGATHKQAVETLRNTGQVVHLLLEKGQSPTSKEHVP
CNKSR3, Q6P9H4, sequence (Q6P9H4 203-303): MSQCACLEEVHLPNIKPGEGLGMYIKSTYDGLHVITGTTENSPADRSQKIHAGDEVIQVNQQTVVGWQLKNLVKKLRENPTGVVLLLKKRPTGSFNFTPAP
Inadl_7, Q8NI35, sequence (Q8NI35 1219-1332): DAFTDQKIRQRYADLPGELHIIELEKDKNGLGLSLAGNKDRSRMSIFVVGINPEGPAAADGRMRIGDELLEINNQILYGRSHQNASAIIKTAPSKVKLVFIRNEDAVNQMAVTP
RIMS1, Q86UR5, sequence (Q86UR5 584-692): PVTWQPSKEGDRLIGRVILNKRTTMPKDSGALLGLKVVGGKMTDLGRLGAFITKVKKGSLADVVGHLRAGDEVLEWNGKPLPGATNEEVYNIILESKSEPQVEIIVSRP
DLG5_2, Q8TDM6, sequence (Q8TDM6 714-800): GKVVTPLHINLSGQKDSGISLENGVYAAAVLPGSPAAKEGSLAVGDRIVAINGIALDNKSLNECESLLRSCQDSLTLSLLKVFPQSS
MAGI1_5, Q96QZ7, sequence (Q96QZ7 986-1098): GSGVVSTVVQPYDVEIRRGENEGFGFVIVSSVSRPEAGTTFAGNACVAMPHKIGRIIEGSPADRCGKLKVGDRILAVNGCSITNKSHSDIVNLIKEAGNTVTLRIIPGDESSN

As to QRQARSETLV [HPV59-E6, Q81964], the pKd entry in experiment [1], in [2], in experiment [3], in experiment [4], in [5] and in experiment [6] was “below the threshold” throughout. The pKd result in experiment [7] was “below the threshold”; in experiment [8] it was 5.41; in experiment [9], “below the threshold”; in experiment [10], 4.42; in experiment [11], “below the threshold”; in experiment [12], 4.62. The pKd result in [13], in [14], in [15], in [16], in [17] and in experiment [18] was “below the threshold” in each case. Moreover, the negative-log Kd (pKd) entry in experiment [19], in experiment [20], in [21], in [22], in [23] and in experiment [24] was “below the threshold” in each case.
SGSRPSATVV [HPV73-E6, Q82005]: the pKd result in [1], in experiment [2], in [3], in [4], in [5] and in experiment [6] was “below the threshold” each time. For the same molecule, the pKd is 4.58 in experiment [7]; 4.11 in [8]; “below the threshold” in experiment [9]; “below the threshold” in [10]; “below the threshold” in experiment [11]; “below the threshold” in [12]. Moreover, the pKd result in experiment [14] is “below the threshold”; in experiment [15], “below the threshold”; in experiment [16], “below the threshold”; in experiment [17], “below the threshold”; in experiment [18], “below the threshold”; in experiment [19] it was 4.17. The negative logarithm of the Kd (pKd) result is “below the threshold” in [20]; “below the threshold” in [21]; 4.36 in experiment [22]; “below the threshold” in experiment [23]; 4.21 in experiment [24].
As for RPLPRKVSQL [DOCK4, Q8N1I0], the pKd result in [1], in experiment [2], in [3], in [4], in experiment [5] and in [6] was “below the threshold” in each case. The negative-log Kd (pKd) result in [8], in [9], in experiment [10], in experiment [11], in [12] and in experiment [13] was “below the threshold” in each case. Further, the pKd entry in [14], in experiment [15], in experiment [16], in experiment [17], in experiment [18] and in experiment [19] was “below the threshold” in each case. In addition, the negative-log Kd (pKd) in experiment [20] was 4.45; in experiment [21], “below the threshold”; in [22] it was “below the threshold”; in experiment [23], “below the threshold”; in [24], “below the threshold”.
For the molecule SKPTRRETEV [HPV35-E6, P27228], the negative-log Kd (pKd) entry in experiment [1], in experiment [2], in [3], in experiment [4], in experiment [5] and in experiment [6] was “below the threshold” in each case. The pKd entry in [7] is “below the threshold”; in experiment [8] it was 4.43; in experiment [9], 3.81; in experiment [10], “below the threshold”; in experiment [11] it was “below the threshold”; in [12], “below the threshold”. The negative-log Kd (pKd) was 4.72 in experiment [13]; “below the threshold” in experiment [14]; 3.77 in experiment [15]; 3.57 in [16]; “below the threshold” in experiment [17]; “below the threshold” in experiment [19]. Also, the negative logarithm of the Kd (pKd) entry in [20] is “below the threshold”; in experiment [21], 3.66; in experiment [22], “below the threshold”; in experiment [23], “below the threshold”; in experiment [24], “below the threshold”.
